Measured values as given in patent publication US20170051041A1.

How the values were obtained:
Experiment in all cases: SPR single-cycle kinetics; reference WT-FVIII-C2
[1] = biological target: FVIII-C2 mutein F2200A (human) (UniProt P00451)
[2] = biological target: FVIII-C2 mutein H2315A (human) (UniProt P00451)
[3] = biological target: FVIII-C2 mutein L2252A (human) (UniProt P00451)
[4] = biological target: FVIII-C2 mutein S2254A (human) (UniProt P00451)
[5] = biological target: FVIII-C2 mutein E2228A (human) (UniProt P00451)
[6] = biological target: FVIII-C2 mutein Q2316A (human) (UniProt P00451)
[7] = biological target: FVIII-C2 mutein R2220A (human) (UniProt P00451)

Fab fragment of human anti-FVIII mAb BO2C11, sequence (VH): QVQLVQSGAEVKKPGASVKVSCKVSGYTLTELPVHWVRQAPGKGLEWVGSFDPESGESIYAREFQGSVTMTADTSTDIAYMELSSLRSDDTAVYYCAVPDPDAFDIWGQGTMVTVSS
Fab fragment of human anti-FVIII mAb BO2C11, sequence (VL): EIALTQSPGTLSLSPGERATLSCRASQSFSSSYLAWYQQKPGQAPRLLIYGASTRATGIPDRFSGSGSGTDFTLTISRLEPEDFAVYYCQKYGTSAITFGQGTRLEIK
UniProt P00451, sequence (P00451 2189-2351 F2219A): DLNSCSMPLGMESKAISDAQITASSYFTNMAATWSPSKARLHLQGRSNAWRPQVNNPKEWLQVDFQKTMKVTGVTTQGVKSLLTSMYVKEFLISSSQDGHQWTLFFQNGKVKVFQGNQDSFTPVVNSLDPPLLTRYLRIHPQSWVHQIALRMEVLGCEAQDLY

Row | Substance | kd(mutein)/kd(WT) [1] | kd(mutein)/kd(WT) [7] | also measured
1 | Murine anti-FVIII C2 domain mAb 1B5 (GMA-8008) (antibody) | > 2 fold |  | kd(mutein)/kd(WT) [2]: > 2 fold; kd(mutein)/kd(WT) [3]: > 2 fold; kd(mutein)/kd(WT) [4]: > 2 fold; kd(mutein)/kd(WT) [5]: > 2 fold; kd(mutein)/kd(WT) [6]: > 2 fold
2 | Murine anti-FVIII C2 domain mAb 2-117 (GMA-8003) (antibody) |  | 3 fold | 
3 | Murine anti-FVIII C2 domain mAb ESH4 (antibody) |  | 2.7 fold | 

Continued, in another order:

Row | kd(mutein)/kd(WT) [1] | kd(mutein)/kd(WT) [7] | Substance | also measured
4 | > 2 fold |  | Fab fragment of human anti-FVIII mAb BO2C11 | 
5 | > 2 fold |  | Murine anti-FVIII C2 domain mAb 3D12 (antibody) | 
6 |  | 4.5 fold | Murine anti-FVIII C2 domain mAb ESH8 (antibody) | 
7 | > 2 fold |  | Murine anti-FVIII C2 domain mAb I109 (antibody) | 
